B1: Ribonuclease HI, P0A7Y4 (parent)
chain: MLKQVEIFTDGSCLGNPGPGGYGAILRYRGREKTFSAGYTRTTNNRMELMAAIVALEALKEHCEVILSTDSQYVRQGITQWIHNWKKRGWKTADKKPVKNVDLWQRLDAALGQHQIKWEWVKGHAGHPENERCDELARAAAMNPTLEDTGYQVEV

Variants of: B1
Conditions: Escherichia coli (strain K12), Thermal, CD, reversible: yes, structure 2RN2, whole UniProt chain shown
[1] = pH 9, 47 °C, glycine-NaOH 50 mM

D70N
ddG of mutation (higher = less stable) (pH 3, 50 °C, glycine-HCl 10 mM): 0.3 kcal/mol
Tm (pH 3, glycine-HCl 10 mM): 48.8 °C
change of melting temperature, mutant - wild type (higher = more stable) (pH 3, glycine-HCl 10 mM): -1.2 °C
unfolding enthalpy (van 't Hoff) (pH 3, glycine-HCl 10 mM): 110 kcal/mol
Tm (pH 9, glycine-NaOH 50 mM): 52.5 °C
change of melting temperature, mutant - wild type (higher = more stable) (pH 9, glycine-NaOH 50 mM): 5.5 °C

D70A
ddG of mutation (higher = less stable) (pH 3, 50 °C, glycine-HCl 10 mM): 0.1 kcal/mol
Tm (pH 3, glycine-HCl 10 mM): 49.7 °C
change of melting temperature, mutant - wild type (higher = more stable) (pH 3, glycine-HCl 10 mM): -0.3 °C
unfolding enthalpy (van 't Hoff) (pH 3, glycine-HCl 10 mM): 85.5 kcal/mol
ddG of mutation (higher = less stable) [1]: -1.1 kcal/mol
Tm (pH 9, glycine-NaOH 50 mM): 50.8 °C
change of melting temperature, mutant - wild type (higher = more stable) (pH 9, glycine-NaOH 50 mM): 3.8 °C

D70E
ddG of mutation (higher = less stable) (pH 3, 50 °C, glycine-HCl 10 mM): -0.5 kcal/mol
Tm (pH 3, glycine-HCl 10 mM): 51.8 °C
change of melting temperature, mutant - wild type (higher = more stable) (pH 3, glycine-HCl 10 mM): 1.8 °C
unfolding enthalpy (van 't Hoff) (pH 3, glycine-HCl 10 mM): 90.4 kcal/mol
ddG of mutation (higher = less stable) [1]: -0.1 kcal/mol

D10N
ddG of mutation (higher = less stable) (pH 3, 50 °C, glycine-HCl 10 mM): 0.7 kcal/mol
Tm (pH 3, glycine-HCl 10 mM): 47.4 °C
change of melting temperature, mutant - wild type (higher = more stable) (pH 3, glycine-HCl 10 mM): -2.6 °C
unfolding enthalpy (van 't Hoff) (pH 3, glycine-HCl 10 mM): 90.5 kcal/mol
ddG of mutation (higher = less stable) [1]: -2 kcal/mol
Tm (pH 9, glycine-NaOH 50 mM): 53.8 °C
change of melting temperature, mutant - wild type (higher = more stable) (pH 9, glycine-NaOH 50 mM): 6.8 °C

D10H
ddG of mutation (higher = less stable) (pH 3, 50 °C, glycine-HCl 10 mM): -0.4 kcal/mol
Tm (pH 3, glycine-HCl 10 mM): 51.5 °C
change of melting temperature, mutant - wild type (higher = more stable) (pH 3, glycine-HCl 10 mM): 1.5 °C
unfolding enthalpy (van 't Hoff) (pH 3, glycine-HCl 10 mM): 115 kcal/mol
ddG of mutation (higher = less stable) [1]: -2.4 kcal/mol

D10E
ddG of mutation (higher = less stable) (pH 3, 50 °C, glycine-HCl 10 mM): -1.1 kcal/mol
Tm (pH 3, glycine-HCl 10 mM): 53.8 °C
change of melting temperature, mutant - wild type (higher = more stable) (pH 3, glycine-HCl 10 mM): 3.8 °C
unfolding enthalpy (van 't Hoff) (pH 3, glycine-HCl 10 mM): 97.7 kcal/mol
ddG of mutation (higher = less stable) [1]: -1 kcal/mol
Tm (pH 9, glycine-NaOH 50 mM): 50.4 °C
change of melting temperature, mutant - wild type (higher = more stable) (pH 9, glycine-NaOH 50 mM): 3.4 °C

D10A
ddG of mutation (higher = less stable) (pH 3, 50 °C, glycine-HCl 10 mM): -2.4 kcal/mol
Tm (pH 3, glycine-HCl 10 mM): 58.1 °C
change of melting temperature, mutant - wild type (higher = more stable) (pH 3, glycine-HCl 10 mM): 8.1 °C
unfolding enthalpy (van 't Hoff) (pH 3, glycine-HCl 10 mM): 105 kcal/mol

D10S
ddG of mutation (higher = less stable) (pH 3, 50 °C, glycine-HCl 10 mM): -0.7 kcal/mol
Tm (pH 3, glycine-HCl 10 mM): 52.4 °C
change of melting temperature, mutant - wild type (higher = more stable) (pH 3, glycine-HCl 10 mM): 2.4 °C
unfolding enthalpy (van 't Hoff) (pH 3, glycine-HCl 10 mM): 121 kcal/mol
ddG of mutation (higher = less stable) [1]: -2.7 kcal/mol
Tm (pH 9, glycine-NaOH 50 mM): 56.2 °C
change of melting temperature, mutant - wild type (higher = more stable) (pH 9, glycine-NaOH 50 mM): 9.2 °C

D134N
ddG of mutation (higher = less stable) (pH 3, 50 °C, glycine-HCl 10 mM): 0.1 kcal/mol
Tm (pH 3, glycine-HCl 10 mM): 49.7 °C
change of melting temperature, mutant - wild type (higher = more stable) (pH 3, glycine-HCl 10 mM): -0.3 °C
unfolding enthalpy (van 't Hoff) (pH 3, glycine-HCl 10 mM): 110 kcal/mol
ddG of mutation (higher = less stable) [1]: -1.8 kcal/mol
Tm (pH 9, glycine-NaOH 50 mM): 53.4 °C
change of melting temperature, mutant - wild type (higher = more stable) (pH 9, glycine-NaOH 50 mM): 6.4 °C

D134A
ddG of mutation (higher = less stable) (pH 3, 50 °C, glycine-HCl 10 mM): -0.8 kcal/mol
Tm (pH 3, glycine-HCl 10 mM): 52.9 °C
change of melting temperature, mutant - wild type (higher = more stable) (pH 3, glycine-HCl 10 mM): 2.9 °C
unfolding enthalpy (van 't Hoff) (pH 3, glycine-HCl 10 mM): 105 kcal/mol
ddG of mutation (higher = less stable) [1]: -2 kcal/mol

E48Q
ddG of mutation (higher = less stable) (pH 3, 50 °C, glycine-HCl 10 mM): 0.1 kcal/mol
Tm (pH 3, glycine-HCl 10 mM): 49.8 °C
change of melting temperature, mutant - wild type (higher = more stable) (pH 3, glycine-HCl 10 mM): -0.2 °C
unfolding enthalpy (van 't Hoff) (pH 3, glycine-HCl 10 mM): 99.1 kcal/mol
Tm (pH 9, glycine-NaOH 50 mM): 48 °C
change of melting temperature, mutant - wild type (higher = more stable) (pH 9, glycine-NaOH 50 mM): 1 °C

E48D
ddG of mutation (higher = less stable) (pH 3, 50 °C, glycine-HCl 10 mM): -0.2 kcal/mol
Tm (pH 3, glycine-HCl 10 mM): 50.8 °C
change of melting temperature, mutant - wild type (higher = more stable) (pH 3, glycine-HCl 10 mM): 0.8 °C
unfolding enthalpy (van 't Hoff) (pH 3, glycine-HCl 10 mM): 103 kcal/mol
ddG of mutation (higher = less stable) [1]: 0.2 kcal/mol
Tm (pH 9, glycine-NaOH 50 mM): 46.2 °C
change of melting temperature, mutant - wild type (higher = more stable) (pH 9, glycine-NaOH 50 mM): -0.8 °C

E48A
ddG of mutation (higher = less stable) (pH 3, 50 °C, glycine-HCl 10 mM): 0.1 kcal/mol
Tm (pH 3, glycine-HCl 10 mM): 49.8 °C
change of melting temperature, mutant - wild type (higher = more stable) (pH 3, glycine-HCl 10 mM): -0.2 °C
unfolding enthalpy (van 't Hoff) (pH 3, glycine-HCl 10 mM): 91.6 kcal/mol
ddG of mutation (higher = less stable) [1]: 0.3 kcal/mol
Tm (pH 9, glycine-NaOH 50 mM): 46 °C
change of melting temperature, mutant - wild type (higher = more stable) (pH 9, glycine-NaOH 50 mM): -1 °C

Source: FireProtDB (doi:10.1074/jbc.271.51.32729)
